In the supplement of paper PMC9170038:

Test system: MS2 coat protein
Experiment: apparent KD of MS2 coat protein; higher = weaker reporter binding
Conditions: Eterna round: R107
How it was run: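 Titration buffer: 100 mM Tris-HCl pH 7.5, 80 mM KCl, 4 mM MgCl2, without or with constant ligand. Designed RNA switches transcribed on-chip from Illumina sequencing clusters received SNAP-549-labelled MS2 coat protein in twofold steps from 0.7 or 1.5 nM to 3 µM. Apparent KD is the median per design of fits to normalised cluster binding curves.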

[1] = input ligand: theophylline 20 uM
[2] = input ligand: theophylline 2 mM
[3] = input ligand: tryptophan 2.4 mM

| Sequence | apparent KD of MS2 coat protein (input ligand: arginine 13.2 mM) [nM] | apparent KD of MS2 coat protein (input ligand: none) [nM] | apparent KD of MS2 coat protein [1] [nM] | apparent KD of MS2 coat protein [2] [nM] | apparent KD of MS2 coat protein [3] [nM] |
| --- | --- | --- | --- | --- | --- |
| UGAGAGACCAGAAGGAGCGACAUGAGGAUCACCCAUGUCUCCCGUUAUGGGAGUUCUUUAGGUCAGGUAGGUCGCUGGUCUCUCA [#1 Exclusion - Arginine B Attempt #8 (Inspired by Omei)] | 59.9 | 132 | 120 | 149 | 87.8 |
| UGAGUUCGCUGAUGGGCUAAGUCAGGUGAUACCAGCCACUCCCGCGGCCCUUGGCAGCACAUGAGGAUCACCCAUGUAGAACUUG [Vexetela] | 16 | 18.4 | 31.1 | 374 | 20.2 |
| UGAUCCUGCAGGGAUACCAGCGCCGCUUGAUAACUGUGCACAUGAGGAUCACCCAUGUAGCGCCCUUGGCAGCCCAGCUAGAGGG [Same State Theophylline B GF23] | 21.8 |  | 33.7 |  | 28.3 |
| UGAUGGAACGGAAGGAGCGUGUAAGAACAAGAACAUGAGGAUCACCCAUGUAUUAAUUUAACACAGGUAGGUCGCCGAGAUAUUG [11.E] | 19.8 | 14.5 | 23.1 | 17.3 | 13.5 |
| UGCCGAGACGUGGAUUACCCGUGUACCGAAGGAGCGCCCGAAAGGGCAGGUAGGUCGCGGAGGACAUGAGGAUCACCCAUGUUUA | 202 | 56.3 | 55 | 79.8 | 55.7 |
| UGCUACAUGAGGAUCACCCAUGUGGGUGAUACCAGCAUUCGUUAAUGCCCUUGGCAGCGCAGCCGAACCAUUCAUUCGGCAGAUC [Laxeor] | 36.2 | 125 | 214 | 382 | 328 |
| UGGAGUAGGGUAAAUAGGAUAAGUACAGAAGGAGCGCGAAUAAACGCAGGUAGGUCGCUGGAACACAUGAGGAUCACCCAUGUUG [Same State Arginine A GF 24] | 20.9 | 25.4 | 26.2 | 17.8 | 25.4 |
| UGGAGUAUCAGACAUGAGGAUCACCCAUGUCGAGGACCGGUACGGCCGCCACUCGGCAGUUUGCGUCCUCAGGUACUCCGGGUAA [Edlatearis] | 16.8 | 11.2 | 26.9 | 15.3 | 27.7 |
| UGGGAAGGAGGAAGGAGCGCCAUAAGGGUGACAGUCUGGGUACAUGAGGAUCACCCAUGUAGGCAGGUAGGUCGCCUAGCUCUCA [XArg-B16] | 9.4 | 9.14 | 12.9 | 12.9 | 9.56 |
| UGGGCAUACAUGAGGAUCACCCAUGUAGAUACCAGCACUAGCCUGUGCCCUUGGCAGCUAACCGGGUCGAGAACUUAGUGCUCCU [Lexele] | 10.9 |  | 21.9 |  | 11.5 |
| UGGGUAGCAUAGAUUGAUAGCUACACUGAAGGAGCGAGGAUAACCUCAGGUAGGUCGCAGACAUGAGGAUCACCCAUGUAGAUGG [Same State Arginine A GF17] | 77.7 | 254 | 174 | 252 | 209 |
| UGGUACAUGAGGAUCACCCAUGUUCCAGAUACCAGUGUCCCGGUGCACCCUUGGCAGCUGGUGGUACAUGAGGAUCACCCAUGUG [Exclusion Theophylline A GF13] | 17.9 | 42.2 | 56.3 | 73.1 | 37.3 |
| UGGUACUAGGCGGCCGCCACUGGGAGAUACAUGAGGAUCACCCAUGUUUAAUGCCGAGAGGCAACUAGGACCGGGCCUAGUACAU | 63.6 |  | 133 | 127 |  |
| UGGUGUAGGGUAAAUAGGCUGAGUACAGAAGGAGCGCGAAUAAACGCAGGUAGGUCGCUGGACACAUGAGGAUCACCCAUGUUGA [Same State Arginine A GF 29] | 10.8 | 20.5 | 31.9 | 27.3 | 21.2 |
| UGUAACAUGAGGAUCACCCAUGUGAGUGAUACCAGACUAGUAUUAGUCCCUUGGCAGCACGCUGGGCGAGUGUAUAGUCUAUGCG [Same State - Theophylline A (Freestyle 15)] | 69 |  | 125 |  | 75.5 |
| UGUAACAUGAGGAUCACCCAUGUGAGUGAUACCAGACUAGUGUUAGUCCCUUGGCAGCACGCUGGGCGAGUGUGUAGUCUAUGCG [Same State - Theophylline A (Freestyle 16)] | 60.9 | 108 | 136 | 117 | 105 |
| UGUAACAUGAGGAUCACCCAUGUGAGUGAUACCAGACUAGUGUUGGUCCCUUGGCAGCACGCUGGACGAAUGUGUAGUCUAUGCG [Same State - Theophylline A (Freestyle 18)] | 59.5 |  | 107 |  | 77.4 |
| UGUAACAUGAGGAUCACCCAUGUGAGUGAUACCAGAUUAGUAUUAGUCCCUUGGCAGCACGUUGGGCGAGUGUAUAGUCUAUGCG [Same State - Theophylline A (Freestyle 13)] | 90.9 |  | 162 |  |  |
| UGUAACAUGAGGAUCACCCAUGUGCACGAUACCAGCUUAUUGAUAGGCCCUUGGCAGCGUAUGCGGAAGCUGUAUAAUAUAUAUC [#27 SameState-TheophyllineA] | 10.3 |  | 18.6 |  | 10.8 |
| UGUAACAUGAGGAUCACCCAUGUGCACGAUACCAGCUUAUUGGUAGGCCCUUGGCAGCGUAUUCGGAAGAUGUAUAAUAUAUAUC [#26 SameState-TheophyllineA] | 12.3 |  | 17.4 |  | 12.1 |
| UGUAAUGGGAUCAACCCAUGAGAGUCUGAAGGAGCGAUCGUAAGAUCAGGUAGGUCGCAGGAGACAUGAGGAUCACCCAUGUAUA [Arg A Ex t2] | 33.3 | 38.7 | 56.6 | 51.1 | 39.5 |

| Sequence | apparent KD of MS2 coat protein (input ligand: arginine 13.2 mM) [nM] | apparent KD of MS2 coat protein (input ligand: none) [nM] | apparent KD of MS2 coat protein [1] [nM] | apparent KD of MS2 coat protein [2] [nM] | apparent KD of MS2 coat protein [3] [nM] |
| --- | --- | --- | --- | --- | --- |
| UGUACCAUGUCGGCCGCCACUUGAAAUAAACAAGAGGAUCACCCUUGUGACGUCAAAGACGUCUCAAGGACCGGGACAUGGUACU [TryBS Zipper #StaticStem #Zipper] | 168 | 313 | 281 | 357 | 19 |
| UGUAUGGACUGAAGGAGCGCAUCAAAAUAACAUGAGGAUCACCCAUGUAAGGCGAAAGCCGUGCAGGUAGGUCGCAGUCCAUACU [ArgBX 3] | 14.9 | 15.6 | 17.3 | 18.8 | 15.3 |
| UGUAUGGACUGAAGGAGCGCCUCAAAAUAACAUGAGGAUCACCCAUGUAGGCGAAAGCCUGGGCAGGUAGGUCGCAGUCCAUACU [ArgBX 2 #StaticStem #MS2Late] | 20.9 | 12.9 | 21.4 | 13.4 | 12.4 |
| UGUAUGGACUGAAGGAGCGGAUGAUAUCAUGAGGAUCACCCAUGGAAUAAGGCGAAAGCCAUCCAGGUAGGUCGCAGUCCAUACU | 45.6 | 72.7 | 131 | 128 | 82.4 |
| UGUAUGGACUGAAGGAGCGGGAAAAUAACCUGAGGAUCACCCAGGUAAAAGGCGAAAGCCACCCAGGUAGGUCGCAGUCCAUACU | 5.69 | 10.7 | 10.2 | 10.6 | 12.5 |
| UGUAUGGACUGAAGGAGCGGGUUGAUAACCUGAGGAUCACCCAGGUAAAAGGCGAAAGCCACCCAGGUAGGUCGCAGUCCAUACU | 16.3 | 18.1 | 21.6 | 19.7 | 20 |
| UGUAUGGACUGAAGGAGCGGGUUGAUAACUUGAGGAUCACCCAGGUAAAAGGCGAAAGCCACCCAGGUAGGUCGCAGUCCAUACU | 52.6 | 57.9 | 58.2 | 69.2 | 66.2 |
| UGUAUGGACUGAAGGAGCGGUAGAUAACUUGAGGAUCACCCAGGUAAUAAGGCGAAAGCCUACCAGGUAGGUCGCAGUCCAUACU | 203 | 144 | 171 | 153 | 138 |
| UGUAUGUGAUCUGAUACCAGAGUGAAUAAACCUGAGGAUCACCCUGGUACGCGAAAGCGACUCCCUUGGCAGCAGAUCGCAUACU | 127 | 163 | 108 | 21.8 | 156 |
| UGUAUGUGAUCUGAUACCAGAGUGACGCGAAAGCGACCUGAGGAUCACCCUGGUAAAUAACUCCCUUGGCAGCAGAUCGCAUACU | 43.8 | 45 | 36.6 | 17.8 | 48.3 |
| UGUAUGUGAUCUGAUACCAGCGUUGAUAACCUGAGGAUCACCCUGGUAAGGCGAAAGCCACGCCCUUGGCAGCAGAUCGCAUACU | 158 |  | 79.1 | 19.8 | 239 |
| UGUAUGUGAUCUGAUACCAGCUAGCGGAAACGCAAGCUUGAGGAUCACCCAAGUGGAAUAAGCCCUUGGCAGCAGAUCGCAUACU [Denovo 5 #StaticStem #AlternativeMS2] | 215 | 266 | 197 | 15.8 | 376 |
| UGUAUGUGAUCUGAUACCAGCUUAAUAACAUGAGCAUCAGCCAUGUGGAGCGGAAACGCUAGCCCUUGGCAGCAGAUCGCAUACU [Denovo 11 #StaticStem #AlternativeMS2] | 101 | 143 | 79 | 13.2 | 129 |
| UGUAUGUGAUCUGAUACCAGCUUUGAUAACCUGAGGAUCACCCUGGUAAGGCGAAAGCCAAGCCCUUGGCAGCAGAUCGCAUACU | 40.1 | 34.5 | 34.5 | 21.9 | 37.3 |
| UGUAUGUGAUCUGAUACCAGUCCAACUGGUAAAACCUGAGGAACACCCAGGUAAAAUUGGGACCCUUGGCAGCAGAUCGCAUACU | 99.5 | 246 | 147 | 23 | 264 |
| UGUAUGUGAUUUGAUACCAGACCAACUGGUAAAACAUGAGGAUCACCCAUGUAAACUUGGGUCCCUUGGCAGCAAAUCGCAUACU [SSTheo B #22] | 67.8 |  | 45.6 |  | 82.7 |
| UGUAUGUGAUUUGAUACCAGACCAGCGGGUGUUACUUGAGGAACACCCAAGUAGGUUUGGGUCCCUUGGCAGCAAAUCGCAUACU [SS Theo B #24 Ms9] | 452 | 39.2 | 309 | 1410 | 79 |
| UGUAUGUGAUUUGAUACCAGACCAGCUGGUGGUACAUGAGCAUCAGCCAUGUAGGUUUGGGUCCCUUGGCAGCAAAUCGCAUACU [SS Theo B #24 Ms2] | 20.7 | 21 | 28.7 | 19.3 | 21.4 |
| UGUAUGUGAUUUGAUACCAGACCAGCUGGUGGUCCAUGAGGAACACCCAUGGAGGUUUGGGUCCCUUGGCAGCAAAUCGCAUACU [SS Theo B #24 Ms20] | 152 |  | 130 | 74.5 | 89.7 |
| UGUAUGUGAUUUGAUACCAGACCAGCUGGUGUUAGAUGAGGAUCACCCAUCUAGGUUUGGGUCCCUUGGCAGCAAAUCGCAUACU [SS Theo B #24 Ms13] | 18 | 18 | 22.1 | 11.4 | 18 |
